Values quoted from earlier work in paper PMC3236687.

Assays:
[1] = target: endothelin receptor (renal papillary membranes) (Sus scrofa) (UniProt P35463); assay: radioligand
[2] = target: endothelin receptors (IMCD cells) (Rattus norvegicus) (UniProt P26684); assay: radioligand
Sequence of UniProt P26684 (P26684 21-426, chain 1 of 2): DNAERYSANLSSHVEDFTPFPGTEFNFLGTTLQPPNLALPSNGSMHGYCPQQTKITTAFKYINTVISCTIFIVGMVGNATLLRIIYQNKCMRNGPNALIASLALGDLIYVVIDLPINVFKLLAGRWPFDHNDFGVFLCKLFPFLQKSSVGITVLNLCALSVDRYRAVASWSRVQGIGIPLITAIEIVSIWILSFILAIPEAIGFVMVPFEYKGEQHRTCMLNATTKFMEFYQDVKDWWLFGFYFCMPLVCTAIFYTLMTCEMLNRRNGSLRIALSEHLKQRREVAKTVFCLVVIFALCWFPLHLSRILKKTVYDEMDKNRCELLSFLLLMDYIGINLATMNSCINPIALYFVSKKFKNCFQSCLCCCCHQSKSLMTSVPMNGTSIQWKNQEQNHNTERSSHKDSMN
Sequence of UniProt P26684 (P21451 27-442, chain 2 of 2, further chain): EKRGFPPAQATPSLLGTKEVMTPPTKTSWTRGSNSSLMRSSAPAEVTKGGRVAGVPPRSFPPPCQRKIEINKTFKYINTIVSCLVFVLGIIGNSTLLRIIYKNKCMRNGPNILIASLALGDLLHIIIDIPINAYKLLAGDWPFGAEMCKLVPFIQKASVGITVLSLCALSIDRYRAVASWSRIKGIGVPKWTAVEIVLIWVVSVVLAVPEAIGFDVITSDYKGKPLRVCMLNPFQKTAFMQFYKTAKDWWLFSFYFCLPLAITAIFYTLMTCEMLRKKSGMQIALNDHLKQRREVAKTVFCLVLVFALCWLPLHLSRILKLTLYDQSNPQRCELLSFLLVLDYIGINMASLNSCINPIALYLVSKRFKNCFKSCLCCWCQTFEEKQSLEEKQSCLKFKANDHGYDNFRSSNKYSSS

Sequence of UniProt P35463 (P35463 27-443): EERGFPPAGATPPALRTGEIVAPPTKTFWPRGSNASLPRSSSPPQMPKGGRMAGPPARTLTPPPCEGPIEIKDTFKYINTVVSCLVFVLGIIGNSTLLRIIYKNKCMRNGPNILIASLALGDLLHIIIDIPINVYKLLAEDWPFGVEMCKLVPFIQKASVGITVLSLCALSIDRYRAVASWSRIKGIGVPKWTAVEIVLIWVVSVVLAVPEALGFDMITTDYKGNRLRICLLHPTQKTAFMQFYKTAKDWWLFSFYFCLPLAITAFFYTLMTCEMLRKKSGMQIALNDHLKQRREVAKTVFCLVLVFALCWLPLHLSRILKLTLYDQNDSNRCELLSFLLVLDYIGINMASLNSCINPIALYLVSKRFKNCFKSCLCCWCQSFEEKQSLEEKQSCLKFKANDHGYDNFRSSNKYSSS

ET-1 (from UniProt P05305)
Kd [1]: 0.137 nM
Kd [2]: 0.218 nM
